The values that follow come from the supplement of paper PMC10567573.

B1: SERPINB5 (parent)
chain: FPESETKECPFRVNKVCGAACSSK
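Note: lentivirally expressed fusions sorted by FACS into six bins by GFP to DsRed ratio, PSI derived from sequencing read proportions per bin multiplied by bin number.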

In the data set the parent is B1. Kind of data set: protein stability index of a GFP-peptide fusion (GPS, HEK-293T) (PSI 1-6); higher = more stable. To be noted: c terminus: a fixed tail appended.
In the case of FPESETKECPFRPNKVCGAACSSK [V13P], the protein stability index was found to be 3.02.

For FPESETKECPFRHNKVCGAACSSK [V13H], the protein stability index was determined as 4.26.

Take FPESETKECPFRCNKVCGAACSSK [V13C]: the protein stability index stood at 3.09.

In the case of FPESETKECPFRSNKVCGAACSSK [V13S], the protein stability index was 3.66.

FPESETKECPFRQNKVCGAACSSK [V13Q]: the protein stability index was 4.03.

As for FPESETKECPFRVNCVCGAACSSK [K15C], the protein stability index was 3.04.

Regarding FPESETKECPFRVNSVCGAACSSK [K15S], the protein stability index stood at 2.32.

FPESETKECPFRVNYVCGAACSSK [K15Y]: the protein stability index amounted to 2.4.

Regarding FPESETKECPFRVNEVCGAACSSK [K15E], the protein stability index is 2.83.

With FPESETKECPFRVNPVCGAACSSK [K15P], the protein stability index was 2.58.

As to FPESETKECPFRVNKVCGAACMSK [S22M], the protein stability index turned out to be 2.4.

Consider FPESETKECPFRVNKVCGAACCSK [S22C], for which the protein stability index stood at 2.27.

Regarding FPESETKECPFRVNKVCGAACKSK [S22K], the protein stability index came to 2.39.

For FPESETKECPFRVNKVCGAACSKK [S23K], the protein stability index is 2.97.

FPESETKECPFRVNKVCGAACSAK [S23A]: the protein stability index was 2.41.

As to FPESETKECPFRVNKVCGAACSQK [S23Q], the protein stability index is 2.35.

FPESETLECPFRVNKVCGAACSSK [K7L]: the protein stability index was 2.5.

Regarding FPESETTECPFRVNKVCGAACSSK [K7T], the protein stability index was 3.1.

Turning to FPESETWECPFRVNKVCGAACSSK [K7W], the protein stability index stood at 1.34.

As to FPESETKECPFRVDKVCGAACSSK [N14D], the protein stability index was determined as 3.17.

With GPESETKECPFRVNKVCGAACSSK [F1G], the protein stability index amounted to 4.7.

Consider KPESETKECPFRVNKVCGAACSSK [F1K], for which the protein stability index was 4.89.

For QPESETKECPFRVNKVCGAACSSK [F1Q], the protein stability index worked out at 4.5.

On to RPESETKECPFRVNKVCGAACSSK [F1R], for which the protein stability index worked out at 4.65.

Regarding IPESETKECPFRVNKVCGAACSSK [F1I], the protein stability index was determined as 4.67.

Take FPASETKECPFRVNKVCGAACSSK [E3A]: the protein stability index turned out to be 1.42.

Turning to FPKSETKECPFRVNKVCGAACSSK [E3K], the protein stability index is 2.09.

With FPSSETKECPFRVNKVCGAACSSK [E3S], the protein stability index stood at 1.47.

For the variant FPNSETKECPFRVNKVCGAACSSK [E3N], the protein stability index is 2.4.

FPTSETKECPFRVNKVCGAACSSK [E3T]: the protein stability index was 1.43.

With FPESETKECPFRVNKVCCAACSSK [G18C], the protein stability index stood at 2.54.

As to FPESETKECPFRVNKVCRAACSSK [G18R], the protein stability index turned out to be 2.43.

Take FPESETKECPFRVNKVCMAACSSK [G18M]: the protein stability index was found to be 2.56.

As for FPESETKECPFRVNKVCSAACSSK [G18S], the protein stability index came out at 3.42.

With FPESETKECPFRVNKVCLAACSSK [G18L], the protein stability index came to 2.05.

As for FHESETKECPFRVNKVCGAACSSK [P2H], the protein stability index was found to be 2.19.

FPESETKECHFRVNKVCGAACSSK [P10H]: the protein stability index amounted to 3.62.

On to FPESETKECFFRVNKVCGAACSSK [P10F], for which the protein stability index came to 2.55.

As for FPESETKECLFRVNKVCGAACSSK [P10L], the protein stability index is 2.14.

For FPESETKECMFRVNKVCGAACSSK [P10M], the protein stability index turned out to be 3.41.

Take FPESETKEQPFRVNKVCGAACSSK [C9Q]: the protein stability index turned out to be 4.03.

As to FPESETKEAPFRVNKVCGAACSSK [C9A], the protein stability index worked out at 4.49.

As for FPESETKEVPFRVNKVCGAACSSK [C9V], the protein stability index came to 4.4.

With FPESETKEWPFRVNKVCGAACSSK [C9W], the protein stability index was determined as 2.07.

Regarding FPESEDKECPFRVNKVCGAACSSK [T6D], the protein stability index turned out to be 2.47.

For the variant FPESECKECPFRVNKVCGAACSSK [T6C], the protein stability index turned out to be 2.38.

As to FPESEHKECPFRVNKVCGAACSSK [T6H], the protein stability index is 2.56.

With FPESEVKECPFRVNKVCGAACSSK [T6V], the protein stability index came out at 3.18.

In the case of FPESELKECPFRVNKVCGAACSSK [T6L], the protein stability index was found to be 2.1.

For FPESEAKECPFRVNKVCGAACSSK [T6A], the protein stability index was determined as 2.68.

Take FPESEKKECPFRVNKVCGAACSSK [T6K]: the protein stability index was 2.28.

As for FPESENKECPFRVNKVCGAACSSK [T6N], the protein stability index amounted to 2.2.

FPESETKWCPFRVNKVCGAACSSK [E8W]: the protein stability index is 1.66.

Turning to FPESETKMCPFRVNKVCGAACSSK [E8M], the protein stability index came to 1.86.

For the variant FPESETKACPFRVNKVCGAACSSK [E8A], the protein stability index came out at 2.25.

Turning to FPESETKKCPFRVNKVCGAACSSK [E8K], the protein stability index turned out to be 3.04.

Consider FPESETKHCPFRVNKVCGAACSSK [E8H], for which the protein stability index was found to be 2.14.

As for FPESETKQCPFRVNKVCGAACSSK [E8Q], the protein stability index stood at 1.98.

For FPESETKECPFRVNKRCGAACSSK [V16R], the protein stability index was 2.8.

On to FPESETKECPFRVNKLCGAACSSK [V16L], for which the protein stability index came out at 1.86.

With FPESETKECPFRVNKWCGAACSSK [V16W], the protein stability index amounted to 2.49.

As to FPESETKECPFRVNKHCGAACSSK [V16H], the protein stability index came to 2.17.

Consider FPESETKECPFRVNKVCGPACSSK [A19P], for which the protein stability index is 2.08.

With FPESETKECPFRVNKVCGIACSSK [A19I], the protein stability index turned out to be 2.63.

Consider FPESETKECPFRVNKVCGNACSSK [A19N], for which the protein stability index was 2.61.

For FPESETKECPFRVNKVCGLACSSK [A19L], the protein stability index is 2.96.

As for FPESETKECPFRVNKVCGAFCSSK [A20F], the protein stability index stood at 1.95.

For the variant FPESETKECPFRVNKVCGAWCSSK [A20W], the protein stability index turned out to be 1.94.

As for FPESETKECPFRVNKVCGASCSSK [A20S], the protein stability index stood at 2.29.

Regarding FPESSTKECPFRVNKVCGAACSSK [E5S], the protein stability index stood at 1.97.

Turning to FPESRTKECPFRVNKVCGAACSSK [E5R], the protein stability index came out at 1.9.

In the case of FPESETKECPGRVNKVCGAACSSK [F11G], the protein stability index was determined as 2.87.

Turning to FPESETKECPERVNKVCGAACSSK [F11E], the protein stability index was 4.43.

Turning to FPESETKECPFWVNKVCGAACSSK [R12W], the protein stability index amounted to 2.87.

As to FPESETKECPFAVNKVCGAACSSK [R12A], the protein stability index worked out at 3.76.

As for FPESETKECPFYVNKVCGAACSSK [R12Y], the protein stability index turned out to be 3.43.

As to FPESETKECPFDVNKVCGAACSSK [R12D], the protein stability index stood at 4.86.

Regarding FPESETKECPFLVNKVCGAACSSK [R12L], the protein stability index is 2.68.

Turning to FPESETKECPFFVNKVCGAACSSK [R12F], the protein stability index came to 3.56.

On to FPECETKECPFRVNKVCGAACSSK [S4C], for which the protein stability index was found to be 3.16.

Take FPEMETKECPFRVNKVCGAACSSK [S4M]: the protein stability index was 2.48.

Regarding FPEDETKECPFRVNKVCGAACSSK [S4D], the protein stability index turned out to be 4.14.

Turning to FPERETKECPFRVNKVCGAACSSK [S4R], the protein stability index turned out to be 2.76.

FPEPETKECPFRVNKVCGAACSSK [S4P]: the protein stability index worked out at 3.49.

For the variant FPEFETKECPFRVNKVCGAACSSK [S4F], the protein stability index turned out to be 2.54.

As for FPESETKECPFRVNKVDGAACSSK [C17D], the protein stability index came to 2.81.

Consider FPESETKECPFRVNKVGGAACSSK [C17G], for which the protein stability index was 2.91.

Consider FPESETKECPFRVNKVVGAACSSK [C17V], for which the protein stability index worked out at 2.88.

Turning to FPESETKECPFRVNKVCGAAKSSK [C21K], the protein stability index was 3.19.

Regarding FPESETKECPFRVNKVCGAAGSSK [C21G], the protein stability index is 2.69.

With FPESETKECPFRVNKVCGAAQSSK [C21Q], the protein stability index came to 2.22.

On to FPESETKECPFRVNKVCGAATSSK [C21T], for which the protein stability index came out at 2.62.

As to FPESETKECPFRVNKVCGAAFSSK [C21F], the protein stability index was found to be 1.94.

As for FPESETKECPFRVNKVCGAARSSK [C21R], the protein stability index is 2.56.
